Assays:
[1] = test system: PEG-PPQ5 fluorogenic nanosensor (PPQ5 peptide on PEG-8 40 kDa scaffold)

Row | Substance | in vitro cleavage (fluorescent dequenching) [1] | reversal of FRET-quenched fluorescent signal (cleavage) (LAS-Q) | reversal of FRET-quenched fluorescent signal (cleavage) (ELA-Q)
1 | recombinant human MMP13 | PEG-PPQ5 pre- and post-aerosolization was equally sensitive to in vitro cleavage by recombinant MMP13 |  | 
2 | recombinant mouse MMP1 |  | Both substrates resist cleavage by MMPI, MMP13, and thrombin | Both substrates resist cleavage by MMPI, MMP13, and thrombin
3 | recombinant mouse MMP13 |  | Both substrates resist cleavage by MMPI, MMP13, and thrombin | Both substrates resist cleavage by MMPI, MMP13, and thrombin
4 | recombinant mouse thrombin |  | Both substrates resist cleavage by MMPI, MMP13, and thrombin | Both substrates resist cleavage by MMPI, MMP13, and thrombin

Source: patent US20200096514
